Assay results reported in patent publication US20100210517A1 (RAPTOR PHARMACEUTICAL, published 2010).

Columns and labels:
[1] = molecular target: T1, LRP2 CR2728 (human, UniProt P98164 3552-3631); experiment: solid-phase assay on coated CR protein, each ligand at 80 nM, blank-corrected absorbance
T1 construct: domain: CR2728; Its cloning is not described in the methods; not shown: N-terminal hexahistidine and S-peptide tags of pET30(+)a
T1 sequence (looked up): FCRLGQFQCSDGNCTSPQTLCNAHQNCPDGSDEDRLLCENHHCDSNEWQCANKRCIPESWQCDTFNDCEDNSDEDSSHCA
Method: (§1) Samples were tested twice, in duplicate, and values combined. Means and standard deviations were then calculated. Blank values obtained from wells incubated in the absence of ligand were used to correct absorbance data.
(§2) Solid phase binding assays-Purified, refolded CR protein (1 μg) was bound to Nunc Maxisorp™ 96-well plates in TBS pH 8 supplemented with 5 mM CaCl₂ (TBSC) overnight at 4° C. Wells were washed with TBSC and then blocked with TBSC containing 2% bovine serum albumin (BSA). […] Control wells contained no added ligand. As an additional control, to determine whether the absence of calcium affected binding, 10 mM EGTA was included in the incubation medium for some samples. […] Excess primary antibody was removed and wells washed before incubation with the secondary antibody, HRP-conjugated goat anti rabbit IgG (Bio-Rad). After washing, TMB substrate solutions (Bio-Rad) were added to detect HRP. Color development was stopped with 1N HCl. Absorption at 450 nm was measured with a microplate spectrophotometer (Molecular Devices). Data were plotted and Kd values derived by non-linear regression with the assumption of single-site binding (GraphPad Prism).

[2] = molecular target: T2, MAT CR12 (human, UniProt Q9Y5Y6 452-524); experiment: as above
T2 construct: also called ST14 CR12; matriptase CR12
T2 sequence: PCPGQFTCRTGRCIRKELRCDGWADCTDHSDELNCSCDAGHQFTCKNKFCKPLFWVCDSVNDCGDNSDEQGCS
Method: as §1, §2

[3] = molecular target: T3, LRP2 CR3031 (human, UniProt P98164 3677-3755); experiment: as above
T3 construct: domain: CR3031; Its cloning is not described in the methods; not shown: N-terminal hexahistidine and S-peptide tags of pET30(+)a
T3 sequence (P98164 3677-3755): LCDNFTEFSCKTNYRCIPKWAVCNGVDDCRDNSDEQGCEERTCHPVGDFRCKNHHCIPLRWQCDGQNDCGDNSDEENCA
Method: as §1, §2

[4] = molecular target: T4, LRP1 CR3-5 (human); experiment: apparent Kd of the variant for the CR pair used in selection; no unit printed in Table 4, nM per Table 2 and paragraph 292
T4 construct: range 852-973; also called L1 CR3-5
T4 sequence (Q07954 852-973): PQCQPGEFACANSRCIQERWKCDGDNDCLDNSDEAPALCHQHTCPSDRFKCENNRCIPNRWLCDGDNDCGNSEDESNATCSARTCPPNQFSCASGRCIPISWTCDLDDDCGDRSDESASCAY

[5] = molecular target: T5, LRP2 CR89 R1088D (human, UniProt P98164 1022-1105); experiment: solid-phase assay on coated CR protein, anti-RAP detection, A450
T5 construct: also called YVWD
Method: as §2
(§3) To test this idea, mutant LRP2 CR89 were prepared in which the native, non-canonical residues at these positions were sequentially substituted with the non-native, canonical residues. As defined above, the A, C, A′, C′ string for LRP2 CR89 is YVWR. Mutants included LRP2 CR89 Y1042W (WVWR), LRP2 CR89 V1047D (YDWR), LRP2 CR89 R1088D (YVWD), LRP2 CR89 V1047D R1088D (YDWD), LRP2 CR89 Y1042W V1047D R1088D (WDWD), LRP2 CR89 Y1042W V1047D (WDWR), LRP2 CR89 Y1042W R1088D (WVWD).

[6] = molecular target: T6, LRP2 CR89 Y1042W V1047D R1088D (human, UniProt P98164 1022-1105); experiment: solid-phase assay; OD at the highest ligand concentration as percent of the highest OD of all ligands
T6 construct: also called WDWD
T6 chain: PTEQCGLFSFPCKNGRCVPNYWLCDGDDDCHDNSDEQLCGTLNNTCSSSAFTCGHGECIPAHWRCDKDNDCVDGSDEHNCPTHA
Method: as §2, §3

[7] = molecular target: T7, LRP2 CR89 V1047D (human, UniProt P98164 1022-1105); experiment: as above
T7 construct: also called YDWR
T7 sequence: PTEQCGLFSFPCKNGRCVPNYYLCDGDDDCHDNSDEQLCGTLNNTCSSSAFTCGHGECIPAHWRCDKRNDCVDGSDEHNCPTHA
Method: as §2, §3

[8] = molecular target: T8, LRP2 CR89 (human, UniProt P98164 1025-1102); experiment: as above
T8 construct: domain: CR89; also called YVWR; L2 CR89; not shown: N-terminal hexahistidine and S-peptide tags of pET30(+)a
T8 sequence (P98164 1025-1102): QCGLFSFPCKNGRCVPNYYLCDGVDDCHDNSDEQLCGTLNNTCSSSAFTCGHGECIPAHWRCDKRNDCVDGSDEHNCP
Method: as §2, §3

[9] = molecular target: T9, LRP2 CR89 V1047D R1088D (human, UniProt P98164 1022-1105); experiment: as above
T9 construct: also called YDWD
T9 sequence: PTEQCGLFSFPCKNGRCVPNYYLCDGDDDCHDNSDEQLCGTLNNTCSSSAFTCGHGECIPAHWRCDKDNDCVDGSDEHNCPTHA
Method: as §2, §3

[10] = molecular target: T5, LRP2 CR89 R1088D; experiment: as above
Method: as §2, §3

[11] = molecular target: T10, LRP2 CR89 Y1042W V1047D (human, UniProt P98164 1022-1105); experiment: as above
T10 construct: also called WDWR
T10 chain: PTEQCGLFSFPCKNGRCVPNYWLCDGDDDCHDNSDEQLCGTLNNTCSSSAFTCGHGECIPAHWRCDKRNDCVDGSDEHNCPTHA
Method: as §2, §3

[12] = molecular target: T11, LRP2 CR89 Y1042W R1088D (human, UniProt P98164 1022-1105); experiment: as above
T11 construct: also called WVWD
T11 chain: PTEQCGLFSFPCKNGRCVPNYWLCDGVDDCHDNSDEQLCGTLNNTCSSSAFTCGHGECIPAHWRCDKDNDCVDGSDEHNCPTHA
Method: as §2, §3

[13] = molecular target: T12, VLDLR CR6-8 (human, UniProt P98155 235-358); experiment: solid-phase binding assay, CR protein coated on plate, anti-RAP detection
T12 construct: range 235-358; also called V CR6-8; not shown: N-terminal hexahistidine and S-peptide tags of pET30(+)a

[14] = molecular target: T4, LRP1 CR3-5; experiment: as above
[15] = molecular target: T8, LRP2 CR89; experiment: as above
[16] = molecular target: T4, LRP1 CR3-5; experiment: solid-phase assay on coated CR protein, single-site non-linear fit
Method: Data were plotted and fitted by non-linear regression with the assumption of a single binding site (GraphPad Prism). Kd values with standard deviations were derived from the regression analysis.
as §2

[17] = molecular target: T4, LRP1 CR3-5; experiment: solid-phase assay; OD at the highest ligand concentration as percent of the highest OD of all ligands
Method: as §2

[18] = molecular target: T8, LRP2 CR89; experiment: as above; remark: listed apart in the source
Method: as §2

B1: RAP d3 (wild-type domain 3 of human RAP, amino acids 201-319 of mature RAP) (ligand)
chain: LDRLRRVSHQGYSTEAEFEEPRVIDLWDLEQSANLTDKELEAFREELKHFEAKIEKHNHYQKQLEIAHEKLRHAESVGDGERVSRSREKHALLEGRTKELGYTVKKHLQDLSGRISRAR
notes: Expressed in E. coli from pET30(+)a, Ni-NTA purified; also called wild-type RAP d3; recombinant RAP d3; not shown: N-terminal hexahistidine and S-peptide tags of pET30(+)a
[1]
  binding result: no binding (tested: 80 nM)
[2]
  binding result: no binding (tested: 80 nM)
[3]
  binding result: no binding (tested: 80 nM)
[4]
  Kd: 16 nM
[5]
  binding result: no binding (tested: 100 nM)
[6]
  % max bind: 15%
[7]
  % max bind: 6%
[8]
  % max bind: 7%
[9]
  % max bind: 6%
[10]
  % max bind: 7%
[11]
  % max bind: 11%
[12]
  % max bind: 16%
[13]
  Kd: > 300 nM
[14]
  Kd: 11 nM
[15]
  Kd: > 300 nM
[16]
  Kd: 16 nM
[17]
  % max: 76%
[18]
  % max: 5%
